One protein from US20040038369 can be followed below.

The data set concerns the target T1, HBEGF (delta TM)-ALP, Q99075.
T1 chain: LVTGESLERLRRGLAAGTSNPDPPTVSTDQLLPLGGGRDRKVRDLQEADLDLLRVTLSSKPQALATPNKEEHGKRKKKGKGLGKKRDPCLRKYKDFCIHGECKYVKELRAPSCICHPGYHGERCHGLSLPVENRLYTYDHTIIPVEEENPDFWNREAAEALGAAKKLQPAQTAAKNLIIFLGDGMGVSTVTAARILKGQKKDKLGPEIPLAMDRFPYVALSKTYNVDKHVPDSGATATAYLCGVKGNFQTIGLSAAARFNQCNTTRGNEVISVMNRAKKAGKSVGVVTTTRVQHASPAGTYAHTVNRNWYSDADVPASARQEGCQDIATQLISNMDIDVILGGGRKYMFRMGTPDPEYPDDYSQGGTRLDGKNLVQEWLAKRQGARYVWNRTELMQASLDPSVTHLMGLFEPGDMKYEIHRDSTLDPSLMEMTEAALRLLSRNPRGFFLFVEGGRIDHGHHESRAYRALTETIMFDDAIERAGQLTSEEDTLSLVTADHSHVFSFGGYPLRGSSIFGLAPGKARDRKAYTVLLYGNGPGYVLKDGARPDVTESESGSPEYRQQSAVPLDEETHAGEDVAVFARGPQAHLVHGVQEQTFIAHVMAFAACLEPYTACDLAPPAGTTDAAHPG

B1: recombinant AST (human airway-specific trypsin-like enzyme expressed in insect cells with a baculovirus vector, purified as in Example 1) (peptide)
chain 1: DQAAANWLINECGAGPDLITLSEQR
chain 2: not shown
In the case of B1, the “cleavage seen by western blotting of the lysate incubated with recombinant HAST (1.56 U/mL) at 37° C. overnight” value was “A mature type having the EGF domain of the HB-EGF was cut out. The band was shifted to a position of about 12 kD”.
